Test results as given in article PMC5948571, “Detection of Metallothionein in Javanese Medaka (Oryzias javanicus), Using a scFv-Immobilized Protein Chip” (Sensors (Basel, Switzerland), 2018).

Target: T1, BSA (Bos taurus, UniProt P02769)
T1 construct: BSA (serum albumin), used as negative control protein; also called control protein
Assay: SPR; scFv-Cys3 (50 µg/mL) immobilised directly on a gold chip by thiol-gold, blocked with PEG-thiol; OjaMT (5-30 µg/mL) or BSA (30 µg/mL) flowed at 10 µL/min for 10 min, PBS wash; PBS, room temperature; portable MiCo SPR nano
Settings: both partners purified

T1 sequence (P02769 25-607): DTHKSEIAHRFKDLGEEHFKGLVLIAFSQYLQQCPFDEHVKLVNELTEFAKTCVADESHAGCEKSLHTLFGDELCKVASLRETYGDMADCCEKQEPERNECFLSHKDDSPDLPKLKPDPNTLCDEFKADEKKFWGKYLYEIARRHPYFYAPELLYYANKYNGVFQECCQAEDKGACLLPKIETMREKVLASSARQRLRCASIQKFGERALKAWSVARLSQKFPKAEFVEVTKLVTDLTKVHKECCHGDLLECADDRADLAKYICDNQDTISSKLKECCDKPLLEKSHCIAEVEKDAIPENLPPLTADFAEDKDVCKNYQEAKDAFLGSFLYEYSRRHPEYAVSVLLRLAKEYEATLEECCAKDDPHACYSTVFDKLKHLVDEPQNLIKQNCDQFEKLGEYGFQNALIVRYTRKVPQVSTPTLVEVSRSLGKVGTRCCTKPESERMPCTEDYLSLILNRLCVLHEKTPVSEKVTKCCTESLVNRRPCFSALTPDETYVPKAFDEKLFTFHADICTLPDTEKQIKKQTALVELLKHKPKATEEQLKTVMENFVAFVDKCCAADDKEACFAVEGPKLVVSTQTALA

binding result: no binding (tested: 30 μg/mL)
B1: Cys3-tagged anti-OjaMT single-chain fragment of variable region (scFv-Cys3) (scFv, V domains shown)
VH: EVQLQQSGAELVKPGASVKLSCKASGYTFTSYSMHWVKQRPGQGLEWIGEINPSNGRTNYNEKFKSKATLTVDKSSSTAYMQVSSLTSEDSAVYYCARRSSYWYFDVWGAGTTVTVSS
VL: DVLMTQTPASQSASLGESVTITCLASQTIGTWLAWYQQKPGKSPQLLIYAATSLADGVPSRFSGSGSGTKFSFKISSLQAEDFVSYYCQQLCNPPYTFGGRHQAGNQ
notes: VH of the anti-OjaMT hybridoma, 119 amino acids; (GGGGS)3 GS-linker, 15 amino acids; VL of the anti-OjaMT hybridoma, 107 amino acids; VH-linker-VL cloned NdeI/HindIII in pET-28a(+) (pJDH033); a GS-linker-Cys3 fragment was put into the HindIII/XhoI sites (pJDH043); also called anti-OjaMT scFv; recombinant scFv; not shown: GS-linker-Cys3, C-terminal, kept
